B1: Anterior gradient protein 2 homolog (Homo sapiens), O95994 (parent)
chain: MEKIPVSAFLLLVALSYTLARDTTVKPGAKKDTKDSRPKLPQTLSRGWGDQLIWTQTYEEALYKSKTSNKPLMIIHHLDECPHSQALKKVFAENKEIQKLAEQFVLLNLVYETTDKHLSPDGQYVPRIMFVDPSLTVRADITGRYSNRLYAYEPADTALLLDNMKKALKLLKTEL

Variants of B1 are the subject of the assay. To be noted: with muc2_human MUC2, Q02817.
For MEKIPVSAFLLLVALSYTLARDTTVKPGAKKDTKDSRPKLPQTLSRGWGDQLIWTQTYEEALYKSKTSNKPLMIIHHLDESPHSQALKKVFAENKEIQKLAEQFVLLNLVYETTDKHLSPDGQYVPRIMFVDPSLTVRADITGRYSNRLYAYEPADTALLLDNMKKALKLLKTEL, the “effect of a mutation on the interaction” value was “disrupting interaction”.

(Values after IntAct's records for PubMed 19359471.)
